Source: patent US20250215083A1 (JIANGSU HENGRUI PHARMACEUTICALS, published 2025)

Legend:
[1] = target: hIL5 (human, UniProt P05113 20-134); assay: ELISA per WO2021139758 Test Example 4
[2] = target: hTSLP (human, UniProt Q969D9 29-159); assay: ELISA per WO2021139758 Test Example 4
[3] = target: human GPRC5D (human, UniProt Q9NZD1 1-345); assay: cell-based or functional assay
Sequence of human GPRC5D (Q9NZD1 whole entry): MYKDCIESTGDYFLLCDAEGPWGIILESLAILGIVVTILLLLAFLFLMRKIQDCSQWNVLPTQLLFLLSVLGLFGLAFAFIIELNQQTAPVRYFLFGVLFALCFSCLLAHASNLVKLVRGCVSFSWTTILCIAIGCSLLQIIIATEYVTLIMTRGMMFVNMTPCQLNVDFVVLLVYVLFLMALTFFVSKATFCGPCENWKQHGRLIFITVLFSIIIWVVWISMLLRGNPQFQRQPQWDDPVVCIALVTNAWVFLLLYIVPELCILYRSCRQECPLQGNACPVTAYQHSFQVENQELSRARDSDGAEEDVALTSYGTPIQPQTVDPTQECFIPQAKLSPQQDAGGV

Row | EC50 [1] | EC50 [2] | Binder | EC50 ratio (relative to JNJ-64407564), cytotoxic activity against NCI-H929 [3] | Lysis rate %, cytotoxic activity against NCI-H929 [3]
1 | 17.4 nM | 3.23 nM | HJ-3 (bispecific antibody) chain 1: not shown chain 2: DIQMTQSPSSVSASVGDRVTITCRASQDIANYLSWYQQKPGKSPKLLIYGTSNLEVGVPSRFSGSRSGTDFTLTISSLQPEDFATYYCLQDKEFPRTFGGGTKVEIKGGGGSSGAPRFLTRPLAFVVSVGKDATLSSQIVGNPTPQVSWEKDKQPVTAGARFRLAQDGDLYRLKILDLQLSDSGQYVSRARNAIGEAFACLGLQVDAEA chain 3: EVQLVQSGAEVKKPGSSVKVSCKASGYTFSNYLIEWVRQAPGQGLEWIGVIDPGVGDTNYNENFKGRATLTADKSTSTAYIELSSLRSEDTAVYYCAREDNTGTAFDYWGQGTTVTVSSASTKGPSVFPLAPSSKSTSGGTAALGCLVKDYFPEPVTVSWNSGALTSGVHTFPAVLQSSGLYSLSSVVTVPSSSLGTQTYICNVNHKPSNTKVDKKVEPKSCDKTHTCPPCPAPEAAGGPSVFLFPPKPKDTLMISRTPEVTCVVVDVSHEDPEVKFNWYVDGVEVHNAKTKPREEQYNSTYRVVSVLTVLHQDWLNGKEYKCKVSNKALPAPIEKTISKAKGQPREPQVCTLPPSREEMTKNQVSLSCAVKGFYPSDIAVEWESNGQPENNYKTTPPVLDSDGSFFLVSKLTVDKSRWQQGNVFSCSVMHEALHNHYTQKSLSLSPGKDYKDDDDK chain 4: SIVMTQTPLSLSVTPGQPASISCKASQSVSSDVTWYLQKPGQSPQLLIYYVSEHYTGVPDRFSGSGYGTDFTLKISRVEAEDVGVYYCQQHHRFPLTFGQGTKLEIKRTVAAPSVFIFPPSDEQLKSGTASVVCLLNNFYPREAKVQWKVDNALQSGNSQESVTEQDSKDSTYSLSSTLTLSKADYEKHKVYACEVTHQGLSSPVTKSFNRGEC |  | 
2 | 17.7 nM | 2.18 nM | HJ-7 (bispecific antibody) chain 1: not shown chain 2: DIQMTQSPSSVSASVGDRVTITCRASQDIANYLSWYQQKPGKSPKLLIYGTSNLEVGVPSRFSGSRSGTDFTLTISSLQPEDFATYYCLQDKEFPRTFGGGTKVEIKGGGGSSGAPRFLTRPKASVVSVGKDATLSCQIVGNPFPQVSWEKDKQPVTAGVRFRLAQDGDLYRLKILDLQLSDSGQYVCRARNAHGEAFACLGLQVDAEA chain 3: EVQLVQSGAEVKKPGSSVKVSCKASGYTFSNYLIEWVRQAPGQGLEWIGVIDPGVGDTNYNENFKGRATLTADKSTSTAYIELSSLRSEDTAVYYCAREDNTGTAFDYWGQGTTVTVSSASTKGPSVFPLAPSSKSTSGGTAALGCLVKDYFPEPVTVSWNSGALTSGVHTFPAVLQSSGLYSLSSVVTVPSSSLGTQTYICNVNHKPSNTKVDKKVEPKSCDKTHTCPPCPAPEAAGGPSVFLFPPKPKDTLMISRTPEVTCVVVDVSHEDPEVKFNWYVDGVEVHNAKTKPREEQYNSTYRVVSVLTVLHQDWLNGKEYKCKVSNKALPAPIEKTISKAKGQPREPQVCTLPPSREEMTKNQVSLSCAVKGFYPSDIAVEWESNGQPENNYKTTPPVLDSDGSFFLVSKLTVDKSRWQQGNVFSCSVMHEALHNHYTQKSLSLSPGK chain 4: SIVMTQTPLSLSVTPGQPASISCKASQSVSSDVTWYLQKPGQSPQLLIYYVSEHYTGVPDRFSGSGYGTDFTLKISRVEAEDVGVYYCQQHHRFPLTFGQGTKLEIKRTVAAPSVFIFPPSDEQLKSGTASVVCLLNNFYPREAKVQWKVDNALQSGNSQESVTEQDSKDSTYSLSSTLTLSKADYEKHKVYACEVTHQGLSSPVTKSFNRGEC |  | 
3 | 37 nM | 2.88 nM | HJ-6 (bispecific antibody) chain 1: not shown chain 2: DIQMTQSPSSVSASVGDRVTITCRASQDIANYLSWYQQKPGKSPKLLIYGTSNLEVGVPSRFSGSRSGTDFTLTISSLQPEDFATYYCLQDKEFPRTFGGGTKVEIKGGGGSSGAPRFLTCPKASVVSVGKDATLSSQIVGNPFPQVSWEKDKQPVTAGVRFRLAQDGDLYRLKILDLQLSDSGQYVSRARNAHGEAFACLGLQVDAEA chain 3: EVQLVQSGAEVKKPGSSVKVSCKASGYTFSNYLIEWVRQAPGQGLEWIGVIDPGVGDTNYNENFKGRATLTADKSTSTAYIELSSLRSEDTAVYYCAREDNTGTAFDYWGQGTTVTVSSASTKGPSVFPLAPSSKSTSGGTAALGCLVKDYFPEPVTVSWNSGALTSGVHTFPAVLQSSGLYSLSSVVTVPSSSLGTQTYICNVNHKPSNTKVDKKVEPKSCDKTHTCPPCPAPEAAGGPSVFLFPPKPKDTLMISRTPEVTCVVVDVSHEDPEVKFNWYVDGVEVHNAKTKPREEQYNSTYRVVSVLTVLHQDWLNGKEYKCKVSNKALPAPIEKTISKAKGQPREPQVCTLPPSREEMTKNQVSLSCAVKGFYPSDIAVEWESNGQPENNYKTTPPVLDSDGSFFLVSKLTVDKSRWQQGNVFSCSVMHEALHNHYTQKSLSLSPGK chain 4: SIVMTQTPLSLSVTPGQPASISCKASQSVSSDVTWYLQKPGQSPQLLIYYVSEHYTGVPDRFSGSGYGTDFTLKISRVEAEDVGVYYCQQHHRFPLTFGQGTKLEIKRTVAAPSVFIFPPSDEQLKSGTASVVCLLNNFYPREAKVQWKVDNALQSGNSQESVTEQDSKDSTYSLSSTLTLSKADYEKHKVYACEVTHQGLSSPVTKSFNRGEC |  | 
4 | 10.9 nM | 3.18 nM | HJ-9 (bispecific antibody) chain 1: not shown chain 2: DIQMTQSPSSVSASVGDRVTITCRASQDIANYLSWYQQKPGKSPKLLIYGTSNLEVGVPSRFSGSRSGTDFTLTISSLQPEDFATYYCLQDKEFPRTFGGGTKVEIKRTVASSGAPRFLTCPKASVVSVGKDATLSSQIVGNPFPQVSWEKDKQPVTAGVRFRLAQDGDLYRLKILDLQLSDSGQYVSRARNAHGEAFACLGLQVDAEA chain 3: EVQLVQSGAEVKKPGSSVKVSCKASGYTFSNYLIEWVRQAPGQGLEWIGVIDPGVGDTNYNENFKGRATLTADKSTSTAYIELSSLRSEDTAVYYCAREDNTGTAFDYWGQGTTVTVSSASTKGPSVFPLAPSSKSTSGGTAALGCLVKDYFPEPVTVSWNSGALTSGVHTFPAVLQSSGLYSLSSVVTVPSSSLGTQTYICNVNHKPSNTKVDKKVEPKSCDKTHTCPPCPAPEAAGGPSVFLFPPKPKDTLMISRTPEVTCVVVDVSHEDPEVKFNWYVDGVEVHNAKTKPREEQYNSTYRVVSVLTVLHQDWLNGKEYKCKVSNKALPAPIEKTISKAKGQPREPQVCTLPPSREEMTKNQVSLSCAVKGFYPSDIAVEWESNGQPENNYKTTPPVLDSDGSFFLVSKLTVDKSRWQQGNVFSCSVMHEALHNHYTQKSLSLSPGK chain 4: SIVMTQTPLSLSVTPGQPASISCKASQSVSSDVTWYLQKPGQSPQLLIYYVSEHYTGVPDRFSGSGYGTDFTLKISRVEAEDVGVYYCQQHHRFPLTFGQGTKLEIKRTVAAPSVFIFPPSDEQLKSGTASVVCLLNNFYPREAKVQWKVDNALQSGNSQESVTEQDSKDSTYSLSSTLTLSKADYEKHKVYACEVTHQGLSSPVTKSFNRGEC |  | 
5 | 16 nM | 2.64 nM | HJ-5 (bispecific antibody) chain 1: not shown chain 2: DIQMTQSPSSVSASVGDRVTITCRASQDIANYLSWYQQKPGKSPKLLIYGTSNLEVGVPSRFSGSRSGTDFTLTISSLQPEDFATYYCLQDKEFPRTFGGGTKVEIKGGGGSSGAPRFLTRPKASVVSVGKDATLSSQIVGNPFPQVSWEKDKQPVTAGVRFRLAQDGDLYRLKILDLQLSDSGQYVSRARNAHGEAFACLGLQVDAEA chain 3: EVQLVQSGAEVKKPGSSVKVSCKASGYTFSNYLIEWVRQAPGQGLEWIGVIDPGVGDTNYNENFKGRATLTADKSTSTAYIELSSLRSEDTAVYYCAREDNTGTAFDYWGQGTTVTVSSASTKGPSVFPLAPSSKSTSGGTAALGCLVKDYFPEPVTVSWNSGALTSGVHTFPAVLQSSGLYSLSSVVTVPSSSLGTQTYICNVNHKPSNTKVDKKVEPKSCDKTHTCPPCPAPEAAGGPSVFLFPPKPKDTLMISRTPEVTCVVVDVSHEDPEVKFNWYVDGVEVHNAKTKPREEQYNSTYRVVSVLTVLHQDWLNGKEYKCKVSNKALPAPIEKTISKAKGQPREPQVCTLPPSREEMTKNQVSLSCAVKGFYPSDIAVEWESNGQPENNYKTTPPVLDSDGSFFLVSKLTVDKSRWQQGNVFSCSVMHEALHNHYTQKSLSLSPGK chain 4: SIVMTQTPLSLSVTPGQPASISCKASQSVSSDVTWYLQKPGQSPQLLIYYVSEHYTGVPDRFSGSGYGTDFTLKISRVEAEDVGVYYCQQHHRFPLTFGQGTKLEIKRTVAAPSVFIFPPSDEQLKSGTASVVCLLNNFYPREAKVQWKVDNALQSGNSQESVTEQDSKDSTYSLSSTLTLSKADYEKHKVYACEVTHQGLSSPVTKSFNRGEC |  | 
6 | 18.7 nM | 3.33 nM | HJ-8 (bispecific antibody) chain 1: not shown chain 2: DIQMTQSPSSVSASVGDRVTITCRASQDIANYLSWYQQKPGKSPKLLIYGTSNLEVGVPSRFSGSRSGTDFTLTISSLQPEDFATYYCLQDKEFPRTFGGGTKVEIKRTVASSGAPRFLTRPKASVVSVGKDATLSSQIVGNPFPQVSWEKDKQPVTAGVRFRLAQDGDLYRLKILDLQLSDSGQYVSRARNAHGEAFACLGLQVDAEA chain 3: EVQLVQSGAEVKKPGSSVKVSCKASGYTFSNYLIEWVRQAPGQGLEWIGVIDPGVGDTNYNENFKGRATLTADKSTSTAYIELSSLRSEDTAVYYCAREDNTGTAFDYWGQGTTVTVSSASTKGPSVFPLAPSSKSTSGGTAALGCLVKDYFPEPVTVSWNSGALTSGVHTFPAVLQSSGLYSLSSVVTVPSSSLGTQTYICNVNHKPSNTKVDKKVEPKSCDKTHTCPPCPAPEAAGGPSVFLFPPKPKDTLMISRTPEVTCVVVDVSHEDPEVKFNWYVDGVEVHNAKTKPREEQYNSTYRVVSVLTVLHQDWLNGKEYKCKVSNKALPAPIEKTISKAKGQPREPQVCTLPPSREEMTKNQVSLSCAVKGFYPSDIAVEWESNGQPENNYKTTPPVLDSDGSFFLVSKLTVDKSRWQQGNVFSCSVMHEALHNHYTQKSLSLSPGK chain 4: SIVMTQTPLSLSVTPGQPASISCKASQSVSSDVTWYLQKPGQSPQLLIYYVSEHYTGVPDRFSGSGYGTDFTLKISRVEAEDVGVYYCQQHHRFPLTFGQGTKLEIKRTVAAPSVFIFPPSDEQLKSGTASVVCLLNNFYPREAKVQWKVDNALQSGNSQESVTEQDSKDSTYSLSSTLTLSKADYEKHKVYACEVTHQGLSSPVTKSFNRGEC |  | 
7 |  |  | F4-7 (bispecific antibody) heavy 1: not shown light 1: not shown heavy 2: EVQLVQSGAEVKKPGASVKVSCKASGYSFTGYTMNWVRQAPGKRPEWMGLINPYTGGTRNNQKFKDRVTLTVDKSASTAYMELSSLRSEDTAVYYCTRWGLRLAMDYWGQGTTVTVSSASTKGPSVFPLAPSSKSTSGGTAALGCLVKDYFPEPVTVSWNSGALTSGVHTFPAVLQSSGLYSLSSVVTVPSSSLGTQTYICNVNHKPSNTKVDKKVEPKSCDKTHTCPPCPAPEAAGGPSVFLFPPKPKDTLMISRTPEVTCVVVDVSHEDPEVKFNWYVDGVEVHNAKTKPREEQYNSTYRVVSVLTVLHQDWLNGKEYKCKVSNKALPAPIEKTISKAKGQPREPQVCTLPPSRDELTKNQVSLSCAVKGFYPSDIAVEWESNGQPENNYKTTPPVLDSDGSFFLVSKLTVDKSRWQQGNVFSCSVMHEALHNHYTQKSLSLSPGK light 2: DIQMTQSPSSVSASVGDRVTITCKASQNVGSNVAWYQQKPGKAPKALIYSASYRYSGVPSRFSGSGSGTDFTLTISSLQPEDFATYYCHQYNSYPPTFGQGTKLEIKRTVAAPSVFIFPPSDEQLKSGTASVVCLLNNFYPREAKVQWKVDNALQSGNSQESVTEQDSKDSTYSLSSTLTLSKADYEKHKVYACEVTHQGLSSPVTKSFNRGEC | 0.16 | 68.3%
